From PMC4654632 (Journal of molecular biology, 2012)

Test: HPLC sedimentation assay of fibril thermodynamic stability
Format: physicochemical
Settings: from Cr (Ka = 1/Cr), PBS pH 7.4, 25 °C

For “wild-type: wild-type amyloid-β 40-residue peptide (Aβ40), made by Fmoc solid-phase synthesis”, which “ΔG (free energy of association)” value is on record?
The value was -7.2 ± 0.2 kcal/mol.
